B1: TpsA (natural protein, Aspergillus niger, UniProt Q00075 1-517, looked up)
chain: MPSLENPTFQNEARLLLVSNRLPITIKRSDDGRYDFSMSSGGLVSGLSGLSKSTTFQWYGWPGLEVPEEEIPVVKERLKQEYNAVPVFIDDELADRHYNGFSNSILWPLFHYHPGEITFDESAWEAYKEANRLFAKAVAKEVQDGDLIWVHDYHLMLLPEMLREEIGDSKENVKIGFFLHTPFPSSEIYRILPVRNELLLGVLHCDLIGFHTYDYTRHFLSACSRLLGLTTTPNGIEFQGKIIACGAFPIGIDPEKFEEGLKKEKVQKRIAMLEQKFQGVKLMVGVDRLDYIKGVPQKLHALEVFLSDHPEWVGKVVLVQVAVPSRQDVEEYQNLRAVVNELVGRINGKFGTVEFMPIHFLHKSVNFDELIALYAVSDACIVSSTRDGMNLVAYEYIATQKKRHGVLVLSEFAGAAQSLNGSIIINPWNTEELAGAYQEAVTMSDEQRALNFSKLDKYVNKYTSAFWGQSFVTELTRISEHSAEKFHAKKASFSDNNSENGEPSNGVETPAQEQVAQ
notes: TpsA, putative trehalose-6-phosphate synthase of Aspergillus niger (Tps1 ortholog), gene tpsA, ANI_1_1406074; full-length cDNA / open reading frame; Cloned into both vectors; each fusion carries one of the two fragments (T25 or T18), not both. cDNA from A. niger N402 background; also called tpsA gene product; trehalose-6-phosphate synthase TpsA; source: bacterial two-hybrid fusion (pKT25 and …)
B2: TpsB (natural protein, Aspergillus niger, UniProt Q00217 1-480, looked up)
chain: MAANGSSSEGDHRLLIVSNRLPITIRRSGGGKYEFSMSSGGLVTGLSGLSKTTTFQWYGWPGLEVPEDEIDSVKQRLQEEFNATPVFMDDKLADRHYNGFSNSILWPLLHYHPGEIVFDEAAWDAYREANRLFAKTIAHEAREGDLVWVHDYHLMLLPEVLREELAALGKNNIRIGFFLHTPFPSSEIYRILPVRSQLLRGVLQCDLIGFHTYDYARHFLSCCSHILGLVTTPSSVKFKDRSVAVGAFPIGIDPDKFTEGLKSPKVQNRIASLENKFQGTKLMVSVDRLDYIKGIPQKLHALEVFLSQHPEWVGKVVLVQVAVPSRQDVEEYQNLRAVVNELVGRINGKFGTVDYMPIHFMHKSVSFDELIALYAASDACVVSSTRDGMNLVSFEYVATQQKRKGVLILSEFAGAAQSLNGSIVVNPWNTEELASAYHEAVSMSDDLRAQKFEKLYKYISKYTSAFWGKSFVAELSKCST
notes: TpsB, putative trehalose-6-phosphate synthase of Aspergillus niger (Tps1 ortholog), gene tpsB, ANI_1_1078064; full-length cDNA / open reading frame; Cloned into both vectors; each fusion carries one of the two fragments (T25 or T18), not both; also called tpsB gene product; trehalose-6-phosphate synthase TpsB; source: bacterial two-hybrid fusion (pKT25 and pUT18C), in E. coli BTH101

Experiment in all cases: two-hybrid; bacterial adenylate cyclase two-hybrid (BACTH System Kit); pKT25 and pUT18C fusions co-transformed into E. coli BTH101; LB with ampicillin, kanamycin and 0.5 mM IPTG, 100 rpm, 20°C, 72 h; β-galactosidase assay as units/mg dry weight; three to four independent assays
The target of the data set “TpsB” is B2.
Another data set deals with TpsC (Aspergillus niger).
Data set [1] concerns the molecule itself.
The data set “TpsA” deals with B1. The following applies: partners not purified.
Another data set concerns the target TppA (Aspergillus niger).

In the case of TpsC (natural protein), the β-galactosidase activity (two-hybrid) (units/mg dry weight bacteria) with TpsB was determined as 688; with TpsC (Aspergillus niger) it was 1210.
Consider TppA (natural protein), for which the β-galactosidase activity (two-hybrid) (units/mg dry weight bacteria) with TpsB was determined as 691.
Take B1: the “β-galactosidase activity (two-hybrid)” value in data set [1] is 418 units/mg dry weight bacteria; with TpsB (partners not purified) it was 1750 units/mg dry weight bacteria.
For the molecule B2, the “β-galactosidase activity (two-hybrid)” value in data set [1] was 1780 units/mg dry weight bacteria; with TpsA it was 1590 units/mg dry weight bacteria. Besides, the β-galactosidase activity (two-hybrid) (units/mg dry weight bacteria) with TppA (Aspergillus niger) came out at 581; with TpsC (Aspergillus niger), 441.

Source of the values: article PMC3991884, “Trehalose synthesis in Aspergillus niger: characterization of six homologous genes, all with conserved orthologs in related species” (BMC Microbiology, 2014).
